Experimental data reported in article PMC6698656, “Structural insights into dimethylation of 12S rRNA by TFB1M: indispensable role in translation of mitochondrial genes and mitochondrial function”.

Target: hsTFB1M (Homo sapiens, UniProt Q8WVM0 28-346)
Test: X-ray crystallography; no SAM (binary complex), 3.0 A; EMSA: 50 mM Tris-HCl pH 8.0, 25 mM NaCl, 100 nM RNA, TFB1M 0-2 mM as printed (legend suggests uM), 37 C 30 min; 6% native PAGE, 0.5x TBE
Settings: protein: recombinant; tags: His6-MBP N-terminal, removed by TEV; hairpin

hsTFB1M, sequence (Q8WVM0 28-346): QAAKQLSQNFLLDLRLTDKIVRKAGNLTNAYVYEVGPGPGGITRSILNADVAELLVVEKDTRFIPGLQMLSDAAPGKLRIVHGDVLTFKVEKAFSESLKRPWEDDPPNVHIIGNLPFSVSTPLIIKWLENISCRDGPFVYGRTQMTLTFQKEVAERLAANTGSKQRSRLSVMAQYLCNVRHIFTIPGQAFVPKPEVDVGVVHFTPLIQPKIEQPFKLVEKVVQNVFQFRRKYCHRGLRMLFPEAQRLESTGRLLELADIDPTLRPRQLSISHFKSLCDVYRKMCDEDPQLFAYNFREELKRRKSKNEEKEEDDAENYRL

Binder: GGUAAGUGUACUGGAAAGUGCACUUGCC (structured_RNA) [h45 RNA (crystal)]
- binding result: binds
